# In article PMC7955049, “ADAR1 RNA editing enzyme regulates R-loop formation and genome stability at telomeres in cancer cells” (Nature Communications, 2021):
# T1: FLAG-ADAR1p110-WT (UniProt P55265-5 1-931)
# T1 construct: ADAR1 (ADAR, DRADA), nuclear p110 isoform, wild type; also called F-ADAR1p110-WT; F-ADAR1p110; source: HEK293T, stably expressing (p3XFLAG-CMV-10 plasmid co-transfected with pPUR), in lysate of formaldehyde-fixed cells
# T1 sequence (looked up): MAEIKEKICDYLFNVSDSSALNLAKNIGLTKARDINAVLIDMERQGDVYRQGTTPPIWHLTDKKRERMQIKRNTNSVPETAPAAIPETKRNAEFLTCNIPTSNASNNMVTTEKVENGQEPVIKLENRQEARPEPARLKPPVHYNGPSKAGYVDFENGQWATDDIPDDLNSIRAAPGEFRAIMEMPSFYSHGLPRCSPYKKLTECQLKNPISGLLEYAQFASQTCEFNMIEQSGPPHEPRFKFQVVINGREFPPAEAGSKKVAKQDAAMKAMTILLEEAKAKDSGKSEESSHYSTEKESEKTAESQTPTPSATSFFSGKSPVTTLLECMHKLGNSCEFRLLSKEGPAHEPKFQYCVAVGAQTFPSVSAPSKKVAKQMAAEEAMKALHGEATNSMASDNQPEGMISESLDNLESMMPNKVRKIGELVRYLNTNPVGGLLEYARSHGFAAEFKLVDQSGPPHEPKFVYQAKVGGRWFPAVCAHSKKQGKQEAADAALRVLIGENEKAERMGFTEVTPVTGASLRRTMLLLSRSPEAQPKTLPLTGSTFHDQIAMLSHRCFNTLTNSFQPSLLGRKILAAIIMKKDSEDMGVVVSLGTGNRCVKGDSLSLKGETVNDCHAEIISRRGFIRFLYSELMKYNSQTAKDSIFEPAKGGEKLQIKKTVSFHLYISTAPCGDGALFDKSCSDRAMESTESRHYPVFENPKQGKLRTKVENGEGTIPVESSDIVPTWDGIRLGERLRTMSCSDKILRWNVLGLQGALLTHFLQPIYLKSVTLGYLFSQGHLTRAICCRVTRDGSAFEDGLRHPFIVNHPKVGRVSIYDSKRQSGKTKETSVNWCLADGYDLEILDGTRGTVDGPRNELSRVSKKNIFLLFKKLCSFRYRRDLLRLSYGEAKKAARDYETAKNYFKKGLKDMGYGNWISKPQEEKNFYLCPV
# B1: RNase H2A (natural protein, human (endogenous in HEK293T), UniProt O75792 1-299, looked up)
# chain: MDLSELERDNTGRCRLSSPVPAVCRKEPCVLGVDEAGRGPVLGPMVYAICYCPLPRLADLEALKVADSKTLLESERERLFAKMEDTDFVGWALDVLSPNLISTSMLGRVKYNLNSLSHDTATGLIQYALDQGVNVTQVFVDTVGMPETYQARLQQSFPGIEVTVKAKADALYPVVSAASICAKVARDQAVKKWQFVEKLQDLDTDYGSGYPNDPKTKAWLKEHVEPVFGFPQFVRFSWRTAQTILEKEAEDVIWEDSASENQEGLRKITSYFLNEGSQARPRSSHRYFLERGLESATSL
# notes: RNase H2 subunit A (RNaseH2A, AGS4), endogenous; also called RNase H2 subunit H2A; endogenous RNase H2A; source: endogenous, HEK293T lysate
# Target: T1, FLAG-ADAR1p110-WT
# Assay: co-IP; cells expressing the FLAG-tagged bait fixed with 0.3% formaldehyde, lysed in co-IP buffer (50 mM Tris-HCl pH 7.6, 150 mM NaCl, 1 mM EDTA, 1% NP-40, 0.5% sodium deoxycholate, 0.1% SDS, RNasin Plus) and sonicated; anti-FLAG M2 magnetic beads overnight at 4 °C; immunoblot; for Fig. 10c HEK293T cells unsynchronized or synchronized at M phase (thymidine-nocodazole)
# Settings: partners not purified
binder,measurement,value
B1,fold increase of the co-IP in M-phase synchronized against unsynchronized cells,> 3 fold
